Where a chain is given by its changes, count along the chain named. Numbers in names are those of the source. Non-standard residues stand in square brackets, D forms with d. No end group written: not given here. pY = N[C@@H](Cc1ccc(OP(=O)(O)O)cc1)C(=O)O
B1: DUSP3-WT (dual-specificity phosphatase 3) (enzyme, UniProt P51452 1-185, looked up)
chain: MSGSFELSVQDLNDLLSDGSGCYSLPSQPCNEVTPRIYVGNASVAQDIPKLQKLGITHVLNAAEGRSFMHVNTNANFYKDSGITYLGIKANDTQEFNLSAYFERAADFIDQALAQKNGRVLVHCREGYSRSPTLVIAYLMMRQKMDVKSALSIVRQNREIGPNDGFLAQLCQLNDRLAKEGKLKP
notes: DUSP3 (VHR), wild type, cDNA in pGEX-4T2 (Torres et al., 2017); Immobilised on a CM5 sensorchip; also called VHR; vaccinia virus H1-related phosphatase; source: E. coli BL-21 (DE3), purified (Glutathione-Sepharose 4B; GST removed by thrombin)
B2: phospho-Y-decapeptide p-NPM(Y17) (peptide)
peptide: SPLRPQN[pY]L
notes: Stretch of nucleophosmin around Y17; source: synthetic peptide, bought: Chinese Peptide Company
B3: phospho-Y-decapeptide p-NPM(Y29) (peptide)
peptide: ADKD[pY]HFKVD
notes: Stretch of nucleophosmin around Y29; source: synthetic peptide, bought: Chinese Peptide Company
B4: phospho-Y-decapeptide p-NPM(Y67) (peptide)
peptide: AMN[pY]EGSPIK
notes: Stretch of nucleophosmin around Y67; source: synthetic peptide, bought: Chinese Peptide Company
B5: phospho-Y-decapeptide p-NPM(Y271) (peptide)
peptide: EAKFIN[pY]VKN
notes: Stretch of nucleophosmin around Y271; source: synthetic peptide, bought: Chinese Peptide Company
B6: DUSP3-C124S mutant (phosphatase dead) (enzyme, UniProt P51452 1-185, looked up)
chain: B1 chain with C124S
notes: DUSP3 (VHR) with the catalytic cysteine 124 substituted by serine, cDNA in pGEX-4T2 (Torres et al., 2017); Immobilised on a CM5 sensorchip; source: E. coli BL-21 (DE3), purified (Glutathione-Sepharose 4B; GST removed by thrombin)

Columns and labels:
ERK1 = target: T1, ERK1 (UniProt P27361 1-379); assay: SPR; Biacore T100; DUSP3-WT or DUSP3-C124S immobilised on CM5 sensorchip (200 RU); protein analytes 12.5-1,000 nM; kinetic assays at 25°C, HBS-EP buffer, 10 μl/min, 120 s association, 300 s dissociation; three independent experiments; conditions: both partners purified
T1 construct: ERK1, cDNA in pGEX-4T2 donated by Prof; Rony Seger; The sentence on purification and on removal of GST names DUSP3 and NPM full length but not ERK1; source: E. coli BL-21 (DE3), purified recombinant protein
T1 sequence (P27361 whole entry): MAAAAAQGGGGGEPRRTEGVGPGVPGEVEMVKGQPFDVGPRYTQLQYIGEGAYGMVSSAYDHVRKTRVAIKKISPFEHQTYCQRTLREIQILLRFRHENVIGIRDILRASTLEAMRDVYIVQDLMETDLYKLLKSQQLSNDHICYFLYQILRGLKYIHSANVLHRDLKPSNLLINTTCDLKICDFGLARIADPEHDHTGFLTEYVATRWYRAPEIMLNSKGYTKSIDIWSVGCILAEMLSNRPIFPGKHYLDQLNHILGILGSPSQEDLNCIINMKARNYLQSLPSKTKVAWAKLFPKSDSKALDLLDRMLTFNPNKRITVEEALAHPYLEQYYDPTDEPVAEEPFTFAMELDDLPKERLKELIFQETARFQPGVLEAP

[1] = target: B1; assay: SPR; Biacore T100; DUSP3-WT immobilised on CM5 sensorchip (3,000 RU); peptides 5-40 μM in HBS-N buffer; 25°C, 120 s association, 300 s dissociation, 10 μl/min; three independent experiments; conditions: both partners purified

| Binder | Kd (ERK1) | Kd [1] |
| --- | --- | --- |
| B1 | 178 nM | – |
| B2 | – | 1620 nM |
| B3 | – | 2340 nM |
| B4 | – | 2010 nM |
| B5 | – | 2070 nM |
| B6 | 130 nM | – |
